According to publication doi:10.1101/764241v3:

Substrate: O=c1ccn([C@@H]2O[C@H](COP(=O)(O)OP(=O)(O)O[C@H]3O[C@H](CO)[C@H](O)[C@H](O)[C@H]3O)[C@@H](O)[C@H]2O)c(=O)[nH]1
Assay: [3H]Gal transfer, Sep-Pak C18 scintillation counting
Type: biochemical, Globisporangium ultimum
Settings: donor, maltose-pNP acceptor, 2 mM MnCl2, pH 7.0, 37°C

B1: PuGat1 (Globisporangium ultimum DAOM BR144) (protein)
chain: MTVGTRRAAYATLITSDAYVMGVEALVYSLFKARVAFPLVVLHSSQVTQPTVAKLTRFCAPFQSSTWRISFRSVPDIGIPDEVTDRSTVHVPGWVNSGYTKLHIFAMDDFEQIVYIDADAIVLQNVDELFDRSTSFAAAPDVFPPDRFNAGVLVIRPNKQLFADLLAKAKELKSYDGGDTGFLNAFFPKWFESDAASRLPFGYNAQRTMYWLVNGKNPGYWNAVQPLKILHYSSNPKPWEDPSRKGDLEILWWQMYTESRCMSFLG
- Km: 15 µM
